Test results as given in PMC5031558, “SPATA2 Links CYLD to LUBAC, Activates CYLD, and Controls LUBAC Signaling” (Molecular Cell, 2016).
Values belong to the binder of their own block, whether it stands above or below them.

B1: SPATA2 (aa 7–356) (domain or fragment, UniProt Q9UM82 7-356, looked up)
chain: MDTKFKDDLFRKYVQFHESKVDTTTSRQRPGSDECLRVAASTLLSLHKVDPFYRFRLIQFYEVVESSLRSLSSSSLRALHGAFSMLETVGINLFLYPWKKEFRSIKTYTGPFVYYVKSTLLEEDIRAILSCMGYTPELGTAYKLRELVETLQVKMVSFELFLAKVECEQMLEIHSQVKDKGYSELDIVSERKSSAEDVRGCSDALRRRAEGREHLTASMSRVALQKSASERAAKDYYKPRVTKPSRSVDAYDSYWESRKPPLKASLSLRKEPVATDVGDDLKDEIIRPSPSLLTMASSPHGSPDVLPPASPSNGPALLRGTYFSTQDDVDLYTDSEPRATYRRQDALRPD
notes: also called extended SPATA2 fragment; source: E. coli, purified (as described in Elliott et al., 2014)
B2: CYLD USP domain (aa 583–956) (domain or fragment, human, UniProt Q9NQC7 583-956, looked up)
chain: GLEIMIGKKKGIQGHYNSCYLDSTLFCLFAFSSVLDTVLLRPKEKNDVEYYSETQELLRTEIVNPLRIYGYVCATKIMKLRKILEKVEAASGFTSEEKDPEEFLNILFHHILRVEPLLKIRSAGQKVQDCYFYQIFMEKNEKVGVPTIQQLLEWSFINSNLKFAEAPSCLIIQMPRFGKDFKLFKKIFPSLELNITDLLEDTPRQCRICGGLAMYECRECYDDPDISAGKIKQFCKTCNTQVHLHPKRLNHKYNPVSLPKDLPDWDWRHGCIPCQNMELFAVLCIETSHYVAFVKYGKDDSAWLFFDSMADRDGGQNGFNIPQVTPCPEVGEYLKMSLEDLHSLDSRRIQGCARRLLCDAYMCMYQSPTMSLYK
notes: Dimer by SEC-MALS (86 kDa); also called intact CYLD USP domain; source: Sf9 insect cells, purified (as described in Komander et al., 2008)
B3: SPATA2 PUB domain (aa 1–241) (domain or fragment, UniProt Q9UM82 1-241, looked up)
chain: MGKPSSMDTKFKDDLFRKYVQFHESKVDTTTSRQRPGSDECLRVAASTLLSLHKVDPFYRFRLIQFYEVVESSLRSLSSSSLRALHGAFSMLETVGINLFLYPWKKEFRSIKTYTGPFVYYVKSTLLEEDIRAILSCMGYTPELGTAYKLRELVETLQVKMVSFELFLAKVECEQMLEIHSQVKDKGYSELDIVSERKSSAEDVRGCSDALRRRAEGREHLTASMSRVALQKSASERAAKD
notes: Spermatogenesis-associated protein 2 (SPATA2), PUB domain, residues 1-241, 27.6 kDa as printed; Monomer by SEC-MALS; also called SPATA2 PUB domain (1–241); source: E. coli, purified (as described in Elliott et al., 2014)
B4: CYLD USP domain I790D (domain or fragment, human)
chain: GLEIMIGKKKGIQGHYNSCYLDSTLFCLFAFSSVLDTVLLRPKEKNDVEYYSETQELLRTEIVNPLRIYGYVCATKIMKLRKILEKVEAASGFTSEEKDPEEFLNILFHHILRVEPLLKIRSAGQKVQDCYFYQIFMEKNEKVGVPTIQQLLEWSFINSNLKFAEAPSCLIIQMPRFGKDFKLFKKIFPSLELNITDLLEDTPRQCRDCGGLAMYECRECYDDPDISAGKIKQFCKTCNTQVHLHPKRLNHKYNPVSLPKDLPDWDWRHGCIPCQNMELFAVLCIETSHYVAFVKYGKDDSAWLFFDSMADRDGGQNGFNIPQVTPCPEVGEYLKMSLEDLHSLDSRRIQGCARRLLCDAYMCMYQSPTMSLYK
notes: CYLD, human, USP domain with I790D, 44 kDa observed; Monomer by SEC-MALS; Limits of the mutant are not restated; parent is m1; also called CYLD I790D; I790D dimerization mutant; source: Sf9 insect cells, purified (as described in Komander et al., 2008)

Assays:
[1] = target: T1, HOIP PUB domain (aa 1–184) (UniProt Q96EP0 1-184); experiment: SEC-MALS; Superdex 200 column; purified SPATA2 (aa 7–356), HOIP PUB (aa 1–184) and CYLD alone and mixed; details: both partners purified
T1 construct: HOIP (RNF31), PUB domain, residues 1-184; The construct used in the pull-down, NMR and FP experiments is called only 'HOIP PUB domain'; also called HOIP PUB domain (1–184); source: E. coli, purified (as described in Elliott et al., 2014)
T1 sequence (looked up): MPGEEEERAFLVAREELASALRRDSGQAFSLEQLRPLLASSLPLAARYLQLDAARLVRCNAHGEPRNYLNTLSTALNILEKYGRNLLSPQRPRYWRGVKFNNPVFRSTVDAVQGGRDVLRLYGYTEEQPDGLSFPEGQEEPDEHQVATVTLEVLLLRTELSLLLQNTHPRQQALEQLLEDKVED

[2] = target: B3; experiment: cell-based or functional assay
[3] = target: the molecule itself; experiment: SEC-MALS; Superdex 75 size-exclusion column; CYLD and SPATA2 PUB variants alone and mixed
[4] = target: B3; experiment: as above; details: both partners purified
[5] = target: B1; experiment: SEC-MALS; Superdex 200 column; purified SPATA2 (aa 7–356), HOIP PUB (aa 1–184) and CYLD alone and mixed; details: both partners purified
[6] = target: B2; experiment: SPR; fraction of CYLD variant bound to SPATA2 PUB against varying CYLD concentrations; kinetic and equilibrium fits; details: both partners purified
[7] = target: B4; experiment: as above; details: both partners purified
[8] = target: T2, HOIP PUB domain (HOIP 5–180, crystal structure) (UniProt Q96EP0 5-180); experiment: crystal structure; HOIP PUB domain with SPATA2 PIM peptide (aa 334–344), 2.7 Å, space group P43, two complexes in the asymmetric unit; details: both partners purified
T2 construct: 5–180 may be the modelled residues of the 1–184 construct; source: E. coli, purified (as described in Elliott et al., 2014)
T2 sequence (looked up): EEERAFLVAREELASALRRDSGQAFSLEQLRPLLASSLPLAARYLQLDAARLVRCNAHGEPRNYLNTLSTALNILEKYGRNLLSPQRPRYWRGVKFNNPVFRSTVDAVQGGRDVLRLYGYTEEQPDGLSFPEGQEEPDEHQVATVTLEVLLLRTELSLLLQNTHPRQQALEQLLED

Binder: B1
- stoichiometry N [1]: 1 SPATA2 per HOIP PUB (1:1)

Binder: B2
- kcat/KM of CYLD for fluorescent Met1/Lys63-linked diUb substrates, with against without SPATA2 [2]: ~2 fold
- stoichiometry N [3]: 2
- stoichiometry N [4]: 1 CYLD USP per SPATA2 PUB (2:2)
- stoichiometry N [5]: 1 CYLD per SPATA2 (2:2:2 with HOIP PUB)

Binder: B3
- Kd [6]: 96 nM
- Kd [7]: 518 nM

Binder: B4
- stoichiometry N [4]: 1 CYLD USP I790D per SPATA2 PUB (1:1)

B5: CYLD B-box domain (aa 778–855) (domain or fragment, human, UniProt Q9NQC7 778-855, looked up)
chain: TDLLEDTPRQCRICGGLAMYECRECYDDPDISAGKIKQFCKTCNTQVHLHPKRLNHKYNPVSLPKDLPDWDWRHGCIP
modifications: 15N-labelled in the NMR titration
notes: CYLD, human, B-box domain, residues 778-855, 9.1 kDa as printed; Dimer by SEC-MALS (17.1 kDa); also called isolated B-box domain
- stoichiometry N [3]: 2

- binding result [8]: binds
B6: SPATA2 PIM peptide (aa 334–344) (peptide, UniProt Q9UM82 334-344, looked up)
peptide: DVDLYTDSEPR
notes: SPATA2, peptide spanning the PIM (Asp-Leu-Tyr-Thr, residues 336-339), residues 334-344; also called SPATA2 334–344
